Patent US11911507B2, “Liposomes comprising polymer-conjugated lipids and related uses” (Yissum Research Development Company of the Hebrew …, priority 2011, dated 2024)

Legend:
[1] = Retention of liposome-encapsulated inulin fluorescein in rat circulation after tail vein injection; assay type: in vivo; conditions: rats, blood samples 5 minutes and 28 hours, versus control nanoliposomes (FIG. 6)
Experimental: FIG. 6: Effect of Pol-PLI on stability of liposomes in rat blood (in vivo): InFl-containing Liposomes were injected to the tail vein of rats, and the retention of drug in the circulation was monitored for 28 hour, by determination of the drug level in blood samples taken 5 minutes and 28 hours after injection, and expressed as percent of the initial, injected InFl amount.

[2] = Size stability of liposomes with different polymer-conjugated lipids on heated incubation, dynamic light scattering; conditions: DMPC liposomes, 55° C., day 1 vs day 17, versus control nanoliposomes
Experimental: FIG. 3: Size stability of liposomes with different polymer-conjugated lipids (Po-Ls): Liposomes with or without the indicated Po-L were incubated at 55° C. for 17 days, and the change in their size was monitored using dynamic light scattering. […] DMPC=dimyristoyl phosphatidyl-choline; HyPE=HyPE=Hyaluronic acid (HA)-conjugated Phosphatidyl-ethanolamine (PE); Dex (5)-PE=Dextran (MW 5K)-conjugated PE; Dex(40)=Dextran (MW 40K)-conjugated PE; Heta-PE=Hetastarch (hydroxyethylstarch)-conjugated PE; Hem-PE=Hemaccel (Polygeline)-conjugated PE.
The size of the mixed nano-liposomes was determined by dynamic light scattering.

In the case of “Haemaccel-Glutaryl-phosphatidyl-ethanolamine [Hem-PE]”, the “release of encapsulated drug from nanoliposomes, in vivo” value [1] is reported as “markedly slowed down the drug release” and the “nanoliposome size stability (FIG. 3)” value [2] is reported as “more stable nanoliposome size than control nanoliposomes”.
